Results reported in PMC7354924, “Repulsive guidance molecules lock growth differentiation factor 5 in an inhibitory complex” (Proceedings of the National Academy of Sciences of the …, 2020).
Substitutions are numbered along the chain they refer to.

T1: growth differentiation factor 5 (GDF5), wild type (UniProt P43026 382-501)
T1 construct: GDF5, disulfide-linked dimer; also called wild-type GDF5
T1 sequence (looked up): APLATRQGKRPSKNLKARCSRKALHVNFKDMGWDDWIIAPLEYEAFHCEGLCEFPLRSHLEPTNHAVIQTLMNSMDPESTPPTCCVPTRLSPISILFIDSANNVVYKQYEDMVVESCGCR

T2: growth differentiation factor 5 (GDF5), wild type (human, UniProt P43026 28-501)
T2 construct: GDF5, human, UniProt P43026; Disulfide-linked dimer without glycans; also called BMP14; CDMP1
T2 sequence (looked up): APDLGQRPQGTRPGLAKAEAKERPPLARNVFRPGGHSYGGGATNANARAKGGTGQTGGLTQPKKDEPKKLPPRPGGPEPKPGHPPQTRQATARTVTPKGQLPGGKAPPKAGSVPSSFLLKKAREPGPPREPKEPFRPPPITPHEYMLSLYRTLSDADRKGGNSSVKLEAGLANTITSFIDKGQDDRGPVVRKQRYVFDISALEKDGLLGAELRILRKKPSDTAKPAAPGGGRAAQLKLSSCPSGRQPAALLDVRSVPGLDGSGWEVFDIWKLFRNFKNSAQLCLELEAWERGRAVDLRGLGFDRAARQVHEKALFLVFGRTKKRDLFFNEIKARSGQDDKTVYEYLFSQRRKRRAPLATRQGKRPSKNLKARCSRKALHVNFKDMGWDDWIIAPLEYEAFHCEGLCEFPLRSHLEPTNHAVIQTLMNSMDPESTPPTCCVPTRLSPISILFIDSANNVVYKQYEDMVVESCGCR

T3: GDF5 variant Tyr487Lys/Gln489Asp (UniProt P43026 28-501, Tyr487Lys | Gln489Asp)
T3 construct: GDF5 with Tyr487Lys and Gln489Asp
T3 sequence (looked up): T2 sequence (looked up) with Y460K, Q462D

B1: soluble RGMC extracellular domain (RGMCECD) for the ProteOn SPR studies (domain or fragment, human, UniProt Q6ZVN8 36-400, looked up)
chain: QCKILRCNAEYVSSTLSLRGGGSSGALRGGGGGGRGGGVGSGGLCRALRSYALCTRRTARTCRGDLAFHSAVHGIEDLMIQHNCSRQGPTAPPPPRGPALPGAGSGLPAPDPCDYEGRFSRLHGRPPGFLHCASFGDPHVRSFHHHFHTCRVQGAWPLLDNDFLFVQATSSPMALGANATATRKLTIIFKNMQECIDQKVYQAEVDNLPVAFEDGSINGGDRPGGSSLSIQTANPGNHVEIQAAYIGTTIIIRQTAGQLSFSIKVAEDVAMAFSAEQDLQLCVGGCPPSQRLSRSERNRRGAITIDTARRLCKEGLPVEDAYFHSCVFDVLISGDPNFTVAAQAALEDARAFLPDLEKLHLFPSD
B2: extracellular domain of human RGMB (RGMBECD, Gln53–Ser411) (domain or fragment)
chain: ETGQCRIQKCTTDFVSLTSHLNSAVDGFDSEFCKALRAYAGCTQRTSKACRGNLVYHSAVLGISDLMSQRNCSKDGPTSSTNPEVTHDPCNYHSHAGAREHRRGDQNPPSYLFCGLFGDPHLRTFKDNFQTCKVEGAWPLIDNNYLSVQVTNVPVVPGSSATATNKITIIFKAHHGCTDQKVYQAVTDDLPAAFVDGTTSGGDSDAKSLRIVERESGHYVEMHARYIGTTVFVRQVGRYLTLAIRMPEDLAMSYEESQDLQLCVNGCPLSERIDDGQGQVSAILGHSLPRTSLVQAWPGYTLETANTQCHEKMPVKDIYFQSCVFDLLTTGDANFTAAAHSALEDVEALHPRKERWHIFPSSGTKHHHHHH
modifications: Asn-linked glycans cut down to one N-acetylglucosamine for crystallization
B3: N-terminal domain of human RGMC (RGMCND, Gln36–Pro145) (domain or fragment)
chain: ETGQCKILRCNAEYVSSTLSLRGGGSSGALRGGGGGGRGGGVGSGGLCRALRSYALCTRRTARTCRGDLAFHSAVHGIEDLMIQHNCSRQGPTAPPPPRGPALPGAGSGLPAP
modifications: Asn-linked glycans cut down to one N-acetylglucosamine for crystallization; kept fully glycosylated for binding assays
notes: Glu-Thr-Gly from the pHLsec vector, after the N-terminal secretion signal; human RGMC (Hemojuvelin), N-terminal domain, residues Gln36–Pro145 of UniProtKB Q6ZVN8-1; also called Hemojuvelin; HFE2; source: HEK-293T, transient transfection, secreted, purified (IMAC, SEC)
B4: RGMCND Gly99Arg (domain or fragment, human)
chain: B3 chain with G67R
notes: Glu-Thr-Gly from the pHLsec vector, after the N-terminal secretion signal; human RGMC, N-terminal domain, residues Gln36–Pro145 of UniProtKB Q6ZVN8-1, with Gly99Arg; Made by site-directed mutagenesis of the RGMCND construct; also called RGMC Gly99Arg; juvenile hemochromatosis-causing mutation; source: HEK-293T, transient transfection, secreted, purified (IMAC, SEC in SPR running buffer)
B5: RGMBND Gly101Arg (domain or fragment)
chain: QCRIQKCTTDFVSLTSHLNSAVDGFDSEFCKALRAYAGCTQRTSKACRRNLVYHSAVLGISDLMSQRNCSKDGPTSSTNPEVTH
B6: N-terminal domain of human RGMB (RGMBND, Gln53-His136) (domain or fragment)
chain: ETGQCRIQKCTTDFVSLTSHLNSAVDGFDSEFCKALRAYAGCTQRTSKACRGNLVYHSAVLGISDLMSQRNCSKDGPTSSTNPEVTHGTKHHHHHH
B7: N-terminal domain of human RGMB (RGMBND, Gln53–His136) (domain or fragment)
chain: B6 chain
modifications: N-linked glycan on Asn120 (cut down to one N-acetylglucosamine for crystallization; kept fully glycosylated for binding assays); methylated for crystal form 2
B8: RGMBND His106Asn (domain or fragment)
chain: B6 chain with H57N
B9: RGMBND His106Leu (domain or fragment)
chain: B6 chain with H57L
B10: N-terminal domain of human RGMA (RGMAND, Ser46–Ser139) (domain or fragment)
chain: ETGSPCKILKCNSEFWSATSGSHAPASDDTPEFCAALRSYALCTRRTARTCRGDLAYHSAVHGIEDLMSQHNCSKDGPTSQPRLRTLPPAGDSQERS
modifications: Asn-linked glycans cut down to one N-acetylglucosamine for crystallization; kept fully glycosylated for binding assays
notes: Glu-Thr-Gly from the pHLsec vector, after the N-terminal secretion signal; human RGMA, N-terminal domain, residues Ser46–Ser139 of UniProtKB Q96B86-1; source: HEK-293T, transient transfection, secreted, purified (IMAC, SEC)

Columns and labels:
[1] = target: T4, bone morphogenetic protein 2 (BMP2) (UniProt P12643 283-396); experiment: cell-based or functional assay
T4 sequence (P12643 283-396): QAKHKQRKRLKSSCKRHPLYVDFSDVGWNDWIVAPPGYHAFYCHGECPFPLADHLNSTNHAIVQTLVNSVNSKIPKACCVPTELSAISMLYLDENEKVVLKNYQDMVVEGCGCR

[2] = target: T1, growth differentiation factor 5 (GDF5), …; experiment: SPR; Biacore T200, 25 °C; GDF5 and BMP2 covalently linked to a CM5 chip by primary amine coupling, RGMs as analytes; 0.5 M NaCl, 20 mM Hepes pH 7.4, 0.05% Tween 20; equilibrium binding, 1:1 Langmuir isotherm; apparent affinity; conditions: both partners purified
[3] = target: T1, growth differentiation factor 5 (GDF5), …; experiment: cell-based or functional assay
[4] = target: T2, growth differentiation factor 5 (GDF5), …; experiment: SPR; Biacore T200, 25 °C; GDF5 amine-coupled to a CM5 chip (830, 970 or 1370 RU); RGMBND variants or BSA as analytes; 0.5 M NaCl, 20 mM HEPES pH 7.4, 0.05% (v/v) Tween 20; Kd from the dose-dependency of equilibrium binding, 1:1 Langmuir isotherm; conditions: both partners purified
[5] = target: T1, growth differentiation factor 5 (GDF5), …; experiment: SEC-MALS; RGMBND–GDF5 complex, 1 mg/mL, Superdex 200 HR 10/30, 0.5 M NaCl, 20 mM Hepes pH 7.5, 21 °C; conditions: both partners purified
[6] = target: T4, bone morphogenetic protein 2 (BMP2); experiment: SPR; Biacore T200, 25 °C; GDF5 and BMP2 covalently linked to a CM5 chip by primary amine coupling, RGMs as analytes; 0.5 M NaCl, 20 mM Hepes pH 7.4, 0.05% Tween 20; equilibrium binding, 1:1 Langmuir isotherm; apparent affinity; conditions: both partners purified
[7] = target: T3, GDF5 variant Tyr487Lys/Gln489Asp; experiment: SEC-MALS; RGMBND–GDF5(Tyr487Lys/Gln489Asp)–ActR2bECD complex, 1 mg/mL, Superdex 200 HR 10/30, 0.5 M NaCl, 20 mM Hepes pH 7.4, 21 °C; conditions: both partners purified

| Binder | Kd [2] [µM] | Kd [4] [µM] | further results |
| --- | --- | --- | --- |
| B1 |  |  | BMP2 (3 nM) BMP-responsive luciferase reporter in LLC-PK1 cells expressing full-length membrane-anchored RGMC [1]: ~3 fold |
| B2 | 8.8 |  | GDF5 (30 nM) BMP-responsive luciferase reporter in LLC-PK1 cells expressing full-length membrane-anchored RGMB [3]: ~3 fold |
| B3 | 3.9 |  |  |
| B4 | > 20 |  |  |
| B5 | > 150 |  |  |
| B6 |  | 1.8 |  |
| B7 | 2.7 |  | stoichiometry N [5]: 2 RGMB per disulfide-linked GDF5 dimer (2:2 by chains); Kd [6]: 20.1 µM; stoichiometry N [7]: 2 RGMBND per GDF5 dimer (2:2:2 by chains) |
| B8 |  | > 150 |  |
| B9 |  | > 200 |  |
| B10 | 16.7 |  |  |
